Assay [1] has as its target T1, human BCMA (huBCMA), full length, on cells (human, UniProt Q02223 1-184).
T1 construct: also called native huBCMA; B-cell maturation antigen
T1 chain: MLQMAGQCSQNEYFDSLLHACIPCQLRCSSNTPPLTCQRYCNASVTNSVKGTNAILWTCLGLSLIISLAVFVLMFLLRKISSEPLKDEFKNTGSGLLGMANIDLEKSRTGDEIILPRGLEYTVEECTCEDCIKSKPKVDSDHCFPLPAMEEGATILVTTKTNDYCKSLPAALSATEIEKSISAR
Description: APRIL blocking FACS. Also noted: concentration or dose not given beside the values.

Assay [2] deals with T2, cynomolgus BCMA, on transiently transfected 293T cells (cynomolgus (Macaca fascicularis), UniProt Q02223 1-184 (human entry)).
T2 construct: also called cyno BCMA
Description: FACS O/N.

Assay [3] addresses T3, TACI, full length, on transiently transfected cells (human, UniProt O14836 1-293).
T3 construct: whole, on cells; also called huTACI
T3 sequence (looked up): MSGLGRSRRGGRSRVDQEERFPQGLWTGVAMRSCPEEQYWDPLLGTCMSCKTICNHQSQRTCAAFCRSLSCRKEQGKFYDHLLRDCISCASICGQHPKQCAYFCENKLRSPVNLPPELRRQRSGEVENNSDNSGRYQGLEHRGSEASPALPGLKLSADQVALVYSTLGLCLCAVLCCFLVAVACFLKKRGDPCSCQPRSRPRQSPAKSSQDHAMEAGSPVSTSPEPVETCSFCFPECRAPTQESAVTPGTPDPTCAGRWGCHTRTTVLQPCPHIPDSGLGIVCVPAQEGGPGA
Briefly: FACS.

The target of assay [4] is T2, cynomolgus BCMA, on transiently …. Description: FACS.
The target in assay [5] is T1, human BCMA (huBCMA), full length, on …. Description: FACS.
The target is the same in assay [6]. Briefly: cell-based or functional assay.
The target is the same in assay [7]. Description: FACS on H929 cells, native BCMA, relative binding, indirect.
Assay [8] has the same target. Description: FACS, H929 cells.
Assay [9] concerns the target T3, TACI, full length, on transiently …. Description: FACS. The source holds these as a separate data set.
Assay [10] concerns the target T2, cynomolgus BCMA, on transiently …. Description: FACS. The source holds these as a separate data set.
The target in assay [11] is T1, human BCMA (huBCMA), full length, on …. Briefly: FACS.
The target is the same in assay [12]. Description: cell-based or functional assay.

Consider 21 molecules from US20170165373A1 (Amgen, published 2017).

Where a chain is given by its changes, count along the chain named. Names may count otherwise. Where two headings read alike, the source gives them in different places.

T2 sequence (Q02223 other isoform, or with tags, fused parts or gaps): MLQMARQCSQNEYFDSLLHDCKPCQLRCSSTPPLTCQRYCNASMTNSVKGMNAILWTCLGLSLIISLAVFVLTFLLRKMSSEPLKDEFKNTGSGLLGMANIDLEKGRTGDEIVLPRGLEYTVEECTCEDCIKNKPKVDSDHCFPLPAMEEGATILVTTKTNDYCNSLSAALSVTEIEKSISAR

B1: 30E1 (antibody, V domains shown)
VH: EVQLLESGGGLVQPGGSLRLSCAASGFTFSSHAMSWVRQAPGKGLEWVSAISGGDGNTYYADSVKGRFAISRDNSKNVVYLQMNSLRAEDTAVYFCAKDLVGVVAGYYYYFGMDVWGQGTTVTVSS
VL: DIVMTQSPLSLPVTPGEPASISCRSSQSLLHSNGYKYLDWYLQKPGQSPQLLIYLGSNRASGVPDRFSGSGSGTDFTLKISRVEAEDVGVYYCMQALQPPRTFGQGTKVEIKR
notes: Tested as purified hybridoma IgG2 or IgG4; also called Ab-9; 30E1.1
Consider B1, for which the “% Inhibition n=1” value in assay [1] came to 31%. Further, in assay [1], the “% Inhibition n=2” value worked out at 46%. In addition, the “Avg. % Inhibition” value in [1] is 38%. Besides, the MFI turned out to be 130 in assay [2], 555 in assay [3], 78500 in assay [4] and 109000 in assay [5]. In addition, the binding result in assay [3] is reported as “no binding”.

B2: 32B5-MCC-DM1 (antibody drug conjugate) (other)
VH: EVQLLESGGALVQPGGSLRLSCAASGFTFSSYAMNWVRQAPGKGLEWVSAISVGGDTYYADSVKGRFTISRDNSKNTLYLHVNSLSAEDSAVYYCAKDQVTLVRGVWYYYGLDVWGQGTTVTVSS
VL: VIVLIQSPLSLPVTPGEPASISCRSSQSLLHSNGNNYLDWYLQKPGQSPHLLISLGSNRTSGVPDRFSGSGSGTDFTLKISRVEAEDVGFYYCMQALQPPRRFGQGTKLEIKR
modifications: antibody carries DM1 through the MCC linker; sites not stated
Consider B2, for which the “H929 cell growth inhibition IC50 (CellTiter-Glo, 96 h)” value in assay [6] came to 0.506 nM. Further, the EC50 in assay [7] came out at 7 nM.

B3: 32B5 (antibody, V domains shown)
VH: B2 VH
VL: B2 VL
notes: 32B5.1 was purified hybridoma IgG2 or IgG4; later converted to human IgG1; also called Ab-10; 32B5.1
Turning to B3, the “% Inhibition n=1” value in [1] is 87%. Further, the “% Inhibition n=2” value in assay [1] is 116%. The “Avg. % Inhibition” value in [1] was 101%. Also, the MFI came to 108 in [2], 274 in assay [3], 259000 in assay [4] and 137000 in assay [5]. The binding result in [3] is given as “no binding”. Further, the EC50 in assay [7] turned out to be 4.2 nM.

B4: 32B5 (N69Q) (antibody, human IgG1, kappa, V domains shown)
VH: B2 VH
VL: B2 VL with N58Q
notes: also called 32B5 (LC: N69Q); P70169.3
For the molecule B4, the binding result in [8] is reported as “binds”.

B5: 33C7 (antibody, V domains shown)
VH: B2 VH
VL: B2 VL
notes: Tested as purified hybridoma IgG2 or IgG4; also called Ab-11; 33C7_HC#1
Consider B5, for which, in [1], the “% Inhibition n=1” value was 68%, the “% Inhibition n=2” value was 88% and the “Avg. % Inhibition” value turned out to be 78%. For the same molecule, the MFI in [2] was found to be 109. Besides, in [3], the MFI was found to be 1890 and the binding result is “no binding”. The molecule further returned an MFI in assay [4] of 238000. In assay [5], this molecule came in with an MFI of 132000.

B6: 29C12 (antibody, V domains shown)
VH: B2 VH with H81Q, V82M, S86R, S90T, L102M
VL: B2 VL with V1D, L4M, F90V
notes: also called Ab-8; 29C12.1
On to B6, for which, in assay [1], the “% Inhibition n=1” value turned out to be 30%, the “% Inhibition n=2” value is 62% and the “Avg. % Inhibition” value was determined as 46%. The same molecule gave an MFI in [2] of 110. For the same molecule, in assay [3], the MFI worked out at 256 and the binding result was “no binding”. The molecule further returned an MFI in assay [4] of 97300. Besides, in assay [5], the MFI was 82600.

B7: 35D2 (antibody, V domains shown)
VH: B2 VH with D56G, S86R, S90T, L102M
VL: B2 VL
notes: also called Ab-15; 35D2.1
Take B7: the “% Inhibition n=1” value in assay [1] was 57%. The “% Inhibition n=2” value in assay [1] was 82%. Also, in assay [1], the “Avg. % Inhibition” value was determined as 70%. The MFI in [2] is 152; in assay [3], 506; in [4] it was 198000; in assay [5], 129000. For the same molecule, the binding result in assay [3] is reported as “no binding”.

B8: 37B2 (antibody, V domains shown)
VH: B2 VH with S31N
VL: B2 VL
notes: Tested as purified hybridoma IgG2 or IgG4; also called Ab-16; 37B2.1
B8: in assay [1], the “% Inhibition n=1” value turned out to be 37%, the “% Inhibition n=2” value turned out to be 58% and the “Avg. % Inhibition” value came to 48%. Also, the MFI in assay [2] came to 104. For the same molecule, in assay [3], the MFI is 1040 and the binding result is recorded as “no binding”. This molecule registered an MFI in assay [4] of 136000. Also, the MFI in assay [5] was 83700.

B9: 40D7 (antibody, V domains shown)
VH: B2 VH with H81Q, V82M, S86R, S90T, L102M
VL: B2 VL with V1D, L4M, Y37F, F67L, F90I, Q98R
notes: also called Ab-17; 40D7.1
On to B9, for which the MFI in assay [9] amounted to 1390; in assay [10], 39300; in [11], 36300. Further, the binding result in [9] was “no binding”.

B10: 32B5 (T71A) (antibody, human IgG1, kappa, V domains shown)
VH: B2 VH
VL: B2 VL with T60A
notes: also called 32B5 (LC: T71A); P70170.3
As to B10, in [8], the binding result is recorded as “binds”.

B11: 32H3 (antibody, V domains shown)
VH: EVQLLESGGGLVQPGGSLRLSCAASGFTFSSYAMSWVRQAPGKGLKWVSAISGGAGNTYYADSVKGRFTISRDISKSTVYLQMTSLRAEDTAIYYCAKDGVGTTGGYFYYHGMDVWGQGTTVTVSS
VL: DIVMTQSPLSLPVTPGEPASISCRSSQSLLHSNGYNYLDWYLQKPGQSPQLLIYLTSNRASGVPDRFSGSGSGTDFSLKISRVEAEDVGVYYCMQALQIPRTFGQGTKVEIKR
notes: Tested as purified hybridoma IgG2 or IgG4; also called Ab-12; 32H3.1
For the molecule B11, in [1], the “% Inhibition n=1” value amounted to 20%, the “% Inhibition n=2” value turned out to be 47% and the “Avg. % Inhibition” value was found to be 33%. For the same molecule, in [2], the MFI was found to be 122. In assay [3], the MFI was determined as 1360 and the binding result is on record as “no binding”. For the same molecule, in [4], the MFI was found to be 51200. Moreover, in assay [5], the MFI was 97700.

B12: 2A1 Covariance 4 (2A1_D84N + C107T) (antibody, human IgG1, lambda, V domains shown)
VH: EVQLVESGGGLVKPGRSLRLSCTASGFTFGDYALSWFRQAPGKGLEWVGVSRSKAYGGTTDYAASVKGRFTISRDNSKSFAYLQMNSLKTEDTAVYYCTSSGYSSGWTPFDYWGQGTLVTVSS
VL: not shown
As to B12, the “ADCC EC50” value in [12] turned out to be 0.028 µg/mL.

B13: 2A1 Covariance 6 (2A1_C107A) (antibody, human IgG1, lambda, V domains shown)
VH: B12 VH with N76D, T99A
VL: not shown
As for B13, the “ADCC EC50” value in [12] came to 0.0169 µg/mL.

B14: 2A1 Covariance 12 (2A1_T24A + F44V + F88T + C107T) (antibody, human IgG1, lambda, V domains shown)
VH: B12 VH with T23A, F37V, N76D, F80T
VL: not shown
For the molecule B14, the “ADCC EC50” value in [12] is 0.111 µg/mL.

B15: 2A1 Covariance 14 (2A1_T24A + F44V + F88T + C107A) (antibody, human IgG1, lambda, V domains shown)
VH: B12 VH with T23A, F37V, N76D, F80T, T99A
VL: not shown
In the case of B15, in assay [12], the “ADCC EC50” value turned out to be 0.0417 µg/mL.

B16: 2A1 Covariance 11 (2A1_F44V + C107A + S108K) (antibody, human IgG1, lambda, V domains shown)
VH: B12 VH with F37V, N76D, T99A, S100K
VL: not shown
Consider B16, for which, in assay [12], the “ADCC EC50” value is 0.364 µg/mL.

B17: 2A1 Covariance 7 (2A1_S108K + C107T) (antibody, human IgG1, lambda, V domains shown)
VH: B12 VH with N76D, S100K
VL: not shown
With B17, in assay [12], the “ADCC EC50” value turned out to be 0.0191 µg/mL.

B18: 2A1 Covariance 5 (2A1_F88T + C107T) (antibody, human IgG1, lambda, V domains shown)
VH: B12 VH with N76D, F80T
VL: not shown
With B18, in assay [12], the “ADCC EC50” value was found to be 0.016 µg/mL.

B19: 2A1 Covariance 13 (2A1_F44V + F88T + C107A) (antibody, human IgG1, lambda, V domains shown)
VH: B12 VH with F37V, N76D, F80T, T99A
VL: not shown
As to B19, the “ADCC EC50” value in assay [12] is 0.0327 µg/mL.

B20: 1E1-PEG4-Mal-DM4 (antibody drug conjugate) (other)
VH: QVQLVQSGAEVKKPGASVKVSCKASGYTFTGHYIHWVRQAPGQGLEWMGWIYPNSGGTNYAQKFQGRVTMTRDTSISTAYMELSRLRSDDSAVYYCAREGMVTGDYYYYRMDVWGQGTTVIVSS
VL: QPVLTQPPSASASLGASVTLTCSLSSGYSNYKVDWYQQRPGKGPRFVMRVGIGGIVGSKGDGIPDRFSVLGSGLNRYLTIKNIQEEDESDFHCGADHGSGNNFVYVFGTGTKVTVLG
modifications: antibody carries DM4 through the PEG4-Mal linker; sites not stated
In the case of B20, in assay [6], the “cell viability IC50 (CellTiter-Glo, 96 h), H929 cells” value came out at 0.68 nM.

B21: 1E1-MCC-DM1 (antibody drug conjugate) (other)
VH: B20 VH
VL: B20 VL
modifications: antibody carries DM1 through the MCC linker; sites not stated
For B21, the “cell viability IC50 (CellTiter-Glo, 96 h), H929 cells” value in assay [6] came to 0.63 nM.
